Holding throughout (assay): MST; His-tagged DHS variants labelled with RED-tris-NTA 2nd Generation, 8.32 nM; eIF5A titrated, sixteen dilutions 0.00175–57.5 μM; 50 mM Tris, 200 mM NaCl, 5 mM β-ME pH 8; Monolith NT.115, 40% excitation power, 60% MST power; no NAD or SPD
Common to all, as to conditions: both partners purified

Assay [1] has as its target T1, deoxyhypusine synthase Y250A, His-tagged (human, UniProt P49366 1-369, Y250A, RED-tris-NTA 2nd Generation dye on the His tag).
T1 construct: human deoxyhypusine synthase, Uniprot P49366, residues 1-369, site-directed mutant of the pET24d full-length construct; also called DHS Y250A; source: E. coli, purified; not shown: 6xHis, N-terminal, kept
T1 sequence (looked up): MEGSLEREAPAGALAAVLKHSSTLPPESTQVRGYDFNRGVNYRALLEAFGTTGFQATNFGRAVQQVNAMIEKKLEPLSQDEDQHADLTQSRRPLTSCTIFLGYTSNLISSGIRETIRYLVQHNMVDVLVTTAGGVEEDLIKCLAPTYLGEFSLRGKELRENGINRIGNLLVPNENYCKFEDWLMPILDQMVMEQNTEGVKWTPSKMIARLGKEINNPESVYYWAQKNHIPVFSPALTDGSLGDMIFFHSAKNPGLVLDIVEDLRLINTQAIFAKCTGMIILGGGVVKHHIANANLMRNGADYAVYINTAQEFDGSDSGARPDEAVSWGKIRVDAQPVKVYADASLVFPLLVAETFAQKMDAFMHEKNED

The target of assay [2] is T2, deoxyhypusine synthase Q83A, His-tagged (human, UniProt P49366 1-369, Q83A, RED-tris-NTA 2nd Generation dye on the His tag).
T2 construct: human deoxyhypusine synthase, Uniprot P49366, residues 1-369, site-directed mutant of the pET24d full-length construct; also called DHS Q83A; source: E. coli, purified; not shown: 6xHis, N-terminal, kept
T2 sequence (looked up): T1 sequence (looked up) with Q83A, A250Y

Assay [3] has as its target T3, deoxyhypusine synthase N173A, His-tagged (human, UniProt P49366 1-369, N173A, RED-tris-NTA 2nd Generation dye on the His tag).
T3 construct: human deoxyhypusine synthase, Uniprot P49366, residues 1-369, site-directed mutant of the pET24d full-length construct; also called DHS N173A; source: E. coli, purified; not shown: 6xHis, N-terminal, kept
T3 sequence (looked up): T1 sequence (looked up) with N173A, A250Y

The target of assay [4] is T4, deoxyhypusine synthase S240A, His-tagged (human, UniProt P49366 1-369, S240A, RED-tris-NTA 2nd Generation dye on the His tag).
T4 construct: human deoxyhypusine synthase, Uniprot P49366, residues 1-369, site-directed mutant of the pET24d full-length construct; also called DHS S240A; source: E. coli, purified; not shown: 6xHis, N-terminal, kept
T4 sequence (looked up): T1 sequence (looked up) with S240A, A250Y

The values that follow come from paper PMC10042821, “Cryo-EM structure of human eIF5A-DHS complex reveals the molecular basis of hypusination-associated neurodegenerative disorders” (Nature Communications, 2023).

Changes are numbered by the printed parent chain.

B1: eukaryotic translation factor 5A (eIF5A-1), residues 15-151 (domain or fragment)
chain: not shown
notes: human eIF5A1, residues 15-151, from pET28-MHL (Addgene); The purification protocol removes the tag with TEV; source: E. coli, purified (HisTrap, TEV cleavage, reverse HisTrap, SEC); not shown: His tag, N-terminal, cleaved
Broadly, the Kd is the constant that tells how readily two partners part at equilibrium. Read a low Kd as a tighter complex. For the molecule B1, the Kd in assay [1] is over 5 µM; in assay [2], over 5 µM; in assay [3], over 5 µM; in assay [4], 2660 ± 434 nM.
